Experiment [1] relates to pseudotyped HIV-1 viruses (envelopes of 4 types of HIV-1 strains). In words: Single-round neutralization of pseudotyped viruses, 4 strains overall. It is filed as cell-based. As to conditions: 4 types of envelope pseudotyped viruses overall; FIG. 3. From the text: With regard to 20 types of antibodies, their binding activity to the cell surface, the amount of antibody produced, and the like were taken into consideration. As a result, regarding 15 types of antibodies, the number of cells was increased, a culture supernatant was collected and was then filtrated, and a monoclonal antibody was then purified using a protein A column or protein G column (GE Healthcare). The neutralizing activity of the thus purified monoclonal antibody on pseudotyped HIV-1 viruses was examined at an antibody concentrations of 10 μg/ml and 2 μg/ml, using the envelopes of 4 types of HIV-1 strains commonly used in laboratories (FIG. 3). In order to produce such pseudotyped virus, on the day before transfection, 293T cells were dispersed on a 100-mm collagen-coated plate (IWAKI) to a cell concentration of 4×10^6, and they were then cultured at 37° C. overnight. Thereafter, 5 μg of pNL4-3-Luc-E^−R^− or 5 μg of pSG3ΔEnv (Li M. et. al, J. Virol. 79, pp. 10108-10125, 2005), 4.5 μg of an envelope expression vector, and 0.5 μg of a pRSV-REV vector were introduced into the culture using Effectene (QIAGEN), and the obtained mixture was then cultured at 37° C. in 5% CO2. Twenty-four hours after initiation of the culture, a supernatant was recovered and was then pass through a 0.2-μm filter. Thereafter, it was then dispensed and was then conserved at −80° C. The obtained pseudotyped virus was subjected to a p24 Antigen ELISA kit (ZeptoMetrix Co.) to measure the amount of p24 antigen. A single-round neutralization experiment using the pseudotyped virus was carried out as follows. On the day before the experiment, GHOST-hi5 cells or TZM-bl cells were dispersed on a 96-well flat bottom culture plate (Falcon) at a concentration of 2×10^4 cells/200 μl. […] Ten seconds after the addition of the luciferase substrate, fluorescence intensity was measured with a TR477 microplate luminometer (Applied Biosystems) (in the case of GHOST-hi5). […] Thereafter, β-galactosidase activity was measured with the TR477 microplate luminometer. […]

For experiment [2], the system named is Standard Virus Panels B; SVPB (12 types of pseudotyped viruses). In words: Breadth of neutralization on Standard Virus Panels B. It is filed as cell-based, HIV-1.
Experimental: The neutralizing activity of the thus purified monoclonal antibody on pseudotyped HIV-1 viruses was examined at an antibody concentrations of 10 μg/ml and 2 μg/ml, using the envelopes of 4 types of HIV-1 strains commonly used in laboratories (FIG. 3). In order to produce such pseudotyped virus, on the day before transfection, 293T cells were dispersed on a 100-mm collagen-coated plate (IWAKI) to a cell concentration of 4×10^6, and they were then cultured at 37° C. overnight. Thereafter, 5 μg of pNL4-3-Luc-E^−R^− or 5 μg of pSG3ΔEnv (Li M. et. al, J. Virol. 79, pp. 10108-10125, 2005), 4.5 μg of an envelope expression vector, and 0.5 μg of a pRSV-REV vector were introduced into the culture using Effectene (QIAGEN), and the obtained mixture was then cultured at 37° C. in 5% CO2. […] Ten seconds after the addition of the luciferase substrate, fluorescence intensity was measured with a TR477 microplate luminometer (Applied Biosystems) (in the case of GHOST-hi5). […] Thereafter, β-galactosidase activity was measured with the TR477 microplate luminometer. Neutralizing activity was calculated in accordance with the expression {1−(t−c)/(n−c)}×100 (t: the fluorescence intensity of a sample; c: the background fluorescence intensity of only cells; n: the fluorescence intensity of a sample with no antibodies). […]
Experiment [3] relates to HIV-1JR-FL chronically infected cells (PM1/JR-FL). In words: FACS binding to functional envelope on infected cell surface. Particulars: for reactivity in the absence of sCD4: absence of sCD4, FIG. 2. The protocol:
It has been known that HIV-1 has a functional envelope causing membrane fusion with target cells on viral particles and on the surfaces of chronically infected cells. In order to study whether or not the produced antibody is able to recognize this functional envelope, the binding activity of the antibody to the cell surface of HIV-1JR-FL chronically infected cells (PM1/JR-FL) was examined with a flow cytometer. […] PM1/JR-FL cells (2×10^5) were placed in a test tube. Thereafter, 50 μl of sCD4 that had been diluted with a FACS buffer (2% BSA, 0.02% Azide in PBS; pH 7.23) and adjusted to a concentration of 1 μg/ml, or 50 μl of only the FACS buffer, was added to the test tube. The mixture was reacted for 15 minute. Thereafter, 50 μl of monoclonal antibody diluted with a FACS buffer to a concentration of 1 to 3 μg/ml was then added to the reaction mixture, and the obtained mixture was reacted at room temperature for 45 minutes. The resultant was washed with a FACS buffer two times, and 50 μl of FITC-bound anti-human IgG antibody (Sigma) diluted with a FACS buffer at a ratio of 1:200 was then added to the resultant. The mixture was incubated at 4° C. in a dark place for 30 minutes. Thereafter, the resultant was washed with a FACS buffer two times, and it was then fixed with 0.5 ml of fixing solution {2% (w/v) paraformaldehyde in PBS}. The fixed sample was analyzed with FACSCalibur (Beckton-Dickinson). The incorporated data was analyzed with Cell Quest (Beckton-Dickinson). […] Differing from the reaction with the gp120 monomer, in the case of a functional envelope consisting of a trimer, the binding inhibition of CD4bs antibodies by sCD4 was not observed. On the other hand, with regard to CD4i antibodies, the 4 types of antibodies all had only weak reactivity in the absence of sCD4, but in the presence of sCD4, such reactivity was increased up to the level equivalent to the reactivity of a V3 antibody.

Experiment [4] has as its system JR-FL strain. In words: MTT assay of combined use on JR-FL strain. The format is cell-based. As to conditions: combined use with CCR5 inhibitor (maraviroc, MVC); HIV-1JRFL; FIG. 12.
Experimental: By combining 0.5δ and 0.5γ in various concentrations, their neutralizing activity on a JR-FL strain was analyzed by an MTT assay. […] In order to analyze such synergistic effect, the analysis method of Chow/Talaley et al. and the 3-dimensional analysis method were applied. […]
The target of experiment [5] is T1, gp120 (Human immunodeficiency virus type 1 group M subtype B, UniProt P03378). Particulars: 0.5δ(3D6) 5 μg/ml for 15 minutes versus control antibody 8D11; FIG. 4.
Experimental: Thereafter, a supernatant was removed, and 175 μl of a blocking buffer (2% bovine serum albumin; BSA, 0.1% Azide, PBS, pH 7.2) was added to the residue. The obtained mixture was left at rest at room temperature for 30 minutes. Thereafter, the well was washed with an ELISA wash buffer (0.15% Tween20, PBS, pH 7.2) three times, and 50 μl each of monomeric gp120 (gp120-SF2; Austral Biologicals, San Ramon, Calif.) was then added thereto. The obtained mixture was left at rest at room temperature for 2 hours. Thereafter, the resultant was washed with the ELISA wash buffer three times, so as to produce a “gp120-captured plate.” A culture supernatant of B cells was added to this plate, and the mixture was then reacted at room temperature for 2 hours. The resultant was washed with the ELISA wash buffer three times, and 100 μl of anti-human IgG-ALP, which had been diluted by a factor of 1000 with the ELISA buffer, was then added to the resultant. The obtained mixture was left at rest at room temperature for 1 hour. The resultant was washed with the ELISA wash buffer three times. Phosphatase substrate (SIGMA) was dissolved in a substrate buffer (Diethanol amine buffer; pH 9.85), and 100 μl of the obtained solution was then added to each well, followed by leaving the mixture at rest at room temperature for 10 to 30 minutes. Thereafter, the absorbance (405 nm) was measured with a microplate reader. […]
The test system of experiment [6] is strain JR-FL. In words: Single-round neutralization of pseudotyped virus, JR-FL. It is filed as cell-based, HIV-1. As to conditions: 10 μg/ml and 2 μg/ml, FIG. 3. The text has this: (§1) With regard to 20 types of antibodies, their binding activity to the cell surface, the amount of antibody produced, and the like were taken into consideration. As a result, regarding 15 types of antibodies, the number of cells was increased, a culture supernatant was collected and was then filtrated, and a monoclonal antibody was then purified using a protein A column or protein G column (GE Healthcare). The neutralizing activity of the thus purified monoclonal antibody on pseudotyped HIV-1 viruses was examined at an antibody concentrations of 10 μg/ml and 2 μg/ml, using the envelopes of 4 types of HIV-1 strains commonly used in laboratories (FIG. 3). In order to produce such pseudotyped virus, on the day before transfection, 293T cells were dispersed on a 100-mm collagen-coated plate (IWAKI) to a cell concentration of 4×10^6, and they were then cultured at 37° C. overnight. […] Ten seconds after the addition of the luciferase substrate, fluorescence intensity was measured with a TR477 microplate luminometer (Applied Biosystems) (in the case of GHOST-hi5). […] Thereafter, β-galactosidase activity was measured with the TR477 microplate luminometer. […]

The test system of experiment [7] is HIV-1 of subtype B (Western type). In words: MTT assay neutralization, 17 types of viral strains overall. It is filed as cell-based. As to conditions: summary of Table 2. The procedure:
Neutralizing activity on 17 types of viral strains including clinically isolated strains was studied (Table 2). For this neutralization experiment, the following MMT assay was applied. As a method, 2×10^3 PM1/CCR5 cells were infected with 100 TCID50 virus in the presence of the antibody in each concentration on a 96-well round-bottom micro culture plate, and the cells were then cultured at 37° C. for 7 days. Thereafter, 100 μl of a culture solution was removed from each well, and 10 μl of an MTT (3-[4,5-dimethylthiazol-2-yl]-2,5-diphenyltetrazolium bromide) solution dissolved in a phosphate-buffered saline (PBS) (7.5 mg/ml) was then added thereto. The obtained mixture was incubated at 37° C. for 3 hours. Thereafter, 100 μl of acidified isopropanol containing 4% Triton X-100 (vol/vol) was added to each well, so as to release formazan crystal. The absorbance (570 nm) was measured with a microplate reader, and the cell survival rate was calculated. This experiment was repeated 2 or 3 times. The antibody concentration necessary for inhibiting 50% virus infection (IC50) was calculated, and the antibody concentration corresponding to such IC50 was indicated with color-coding.
It should be noted that strains, which were not neutralized by the anti-V3 antibody, 0.5γ(1C10), were neutralized by the CD4bs antibodies, 0.5δ(3D6) and 49G2. That is to say, a complementary neutralization was observed.

The subject of experiment [8] is strain 89.6. In words: Single-round neutralization of pseudotyped virus, 89.6. It is filed as cell-based, HIV-1. As to conditions: 10 μg/ml and 2 μg/ml, FIG. 3.
Excerpt: as §1

Experiment [9] deals with SVPC13. In words: Neutralization of subtype C virus panel, SVPC13. It is filed as cell-based, HIV-1. Particulars: compared with a control antibody, FIG. 11. The text has this: (§2) As with the panels of subtype (clade) B viruses (SVPB), the panels of subtype C viruses have also been supplied. […] Thus, it is considered that they are important for the studies of cross-clade neutralization by antibodies.

The test system of experiment [10] is SVPC15. In words: Neutralization of subtype C virus panel, SVPC15. The format is cell-based, HIV-1. Particulars: compared with a control antibody, FIG. 11.
Excerpt: as §2

Experiment [11] deals with 93TH976.17. In words: Neutralization of subtype AE virus 93TH976.17. It is filed as cell-based, HIV-1. As to conditions: 93TH976.17, subtype AE; FIG. 11.
Excerpt: as §2

Experiment [12] deals with T1, gp120. Particulars: epitope on gp120: V3L, CD4bs, CD4i.
Experimental: Antibodies reacting with gp120 are classified into the following 4 types, depending on the types of reactive epitopes. Specifically, the 4 types are a CD4-binding site (CD4bs), a CD4-induced epitope (CD4i), a third variable loop (V3loop; V3L), and those that cannot be classified into the aforementioned groups (other epitopes). Whether or not an antibody binds to V3L is determined by ELISA using a synthetic peptide having the amino acid sequence of V3L (V3-peptide ELISA). […] On the day before the experiment, 100 μl of a peptide (NNT20) diluted in PBS at a concentration of 5 μg/ml was added to each well of a 96-well polypropyren plate, and it was then left at 4° C. overnight. After washing, 175 μl of a blocking buffer was added to each well, and was incubated at room temperature for 30 minutes. The plate was washed with an ELISA wash buffer three times, and a B cell culture supernatant diluted serially was then added to the wells. The plate was reacted at room temperature for 2 hours. […] After washing the resultant, color was developed using ALP-Substrate, and the absorbance (405 nm) was then measured. […]
On the other hand, soluble CD4 (sCD4; R&D Systems, Inc. Minneapolis, Minn.) exerts completely opposite influences on a CD4bs antibody and a CD4i antibody. […] After washing them, color was developed using ALP-Substrate, and the absorbance (405 nm) was then measured.
Experiment [13] addresses monomeric gp120 (gp120-SF2) (Human immunodeficiency virus type 1 group M subtype B, UniProt P03378). As to conditions: presence or absence of 0.5 μg/ml sCD4; FIG. 1.
Experimental: The “gp120-capture ELISA” was applied to screen for the antibody-producing cells having an anti-gp120 activity (J. P. Moore et al., J. Virol. 67, pp. 6136-6151, 1993). […] Thereafter, a supernatant was removed, and 175 μl of a blocking buffer (2% bovine serum albumin; BSA, 0.1% Azide, PBS, pH 7.2) was added to the residue. The obtained mixture was left at rest at room temperature for 30 minutes. Thereafter, the well was washed with an ELISA wash buffer (0.15% Tween20, PBS, pH 7.2) three times, and 50 μl each of monomeric gp120 (gp120-SF2; Austral Biologicals, San Ramon, Calif.) was then added thereto. The obtained mixture was left at rest at room temperature for 2 hours. Thereafter, the resultant was washed with the ELISA wash buffer three times, so as to produce a “gp120-captured plate.” A culture supernatant of B cells was added to this plate, and the mixture was then reacted at room temperature for 2 hours. The resultant was washed with the ELISA wash buffer three times, and 100 μl of anti-human IgG-ALP, which had been diluted by a factor of 1000 with the ELISA buffer, was then added to the resultant. […] Thereafter, the absorbance (405 nm) was measured with a microplate reader.
Utilizing this property, monoclonal antibodies were classified. […] After washing them, color was developed using ALP-Substrate, and the absorbance (405 nm) was then measured.
The subject of experiment [14] is 93TH966.8. In words: Neutralization of subtype AE virus 93TH966.8. The format is cell-based, HIV-1. Particulars: 93TH966.8, subtype AE; FIG. 11.
Excerpt: as §2

T1 sequence (P03378 32-509): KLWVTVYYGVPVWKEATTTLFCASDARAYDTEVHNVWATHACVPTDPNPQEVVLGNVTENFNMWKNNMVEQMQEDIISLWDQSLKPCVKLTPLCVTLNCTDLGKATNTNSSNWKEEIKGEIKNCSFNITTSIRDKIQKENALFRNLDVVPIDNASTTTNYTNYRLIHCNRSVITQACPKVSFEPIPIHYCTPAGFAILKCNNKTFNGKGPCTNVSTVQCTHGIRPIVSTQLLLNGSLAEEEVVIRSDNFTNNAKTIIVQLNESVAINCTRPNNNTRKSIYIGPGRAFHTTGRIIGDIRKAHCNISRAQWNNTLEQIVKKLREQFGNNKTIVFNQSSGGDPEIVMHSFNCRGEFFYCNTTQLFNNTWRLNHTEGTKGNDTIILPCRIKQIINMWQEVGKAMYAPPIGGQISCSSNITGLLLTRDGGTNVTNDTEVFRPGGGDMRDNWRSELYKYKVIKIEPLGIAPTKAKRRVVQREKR
Sequence of monomeric gp120 (gp120-SF2) (P03378 32-509): as above

B1: 0.5γ(1C10): human IgG1 κ monoclonal antibody to gp120 V3 loop; VH SEQ ID NO: 1, VL SEQ ID NO: 2; FERM BP-11060 (antibody, listed as Homo sapiens, V domains shown)
VH: EVQLVESGGGLIQPGGSLRLSCAASGFTVSSSSMSWVRQAPEKGLEWVSVVYSGGNTYNADSVKGRFSISRDNSKNTVYLQMNSLRADDTAVYYCARDLGGGDRSSDYWGQGTLVTVSS
VL: DIQLTQSPSSLSASVGDRVTITCRASESINTYLNWYQQRPGKAPKLLIYAASTLQTGVPSRFSGSGSGTLFTLTISSLQPEDLATYYCQQSFSTLPYTLGRGTKVEIKG
notes: human IgG1 κ monoclonal antibody to gp120 V3 loop; FERM BP-11060
Regarding B1, the neutralizing activity result in experiment [1] was “strong neutralizing activity”; in experiment [6] it was “exhibited a neutralizing activity”; in [8], “exhibited a neutralizing activity”. Also, the “viruses whose growth was suppressed 50% or more” value in experiment [2] (at a concentration of 50 μg/ml) is listed as 7/12; in experiment [2] (at a concentration of 150 μg/ml), 10/12. In experiment [3], the “reactivity in the absence of sCD4” value is given as “strong reactivity”. Also, the “combination effect on neutralizing activity” value in experiment [4] was “synergistic inhibitory effect”. Moreover, the “reactivity of biotinylated antibody with gp120 in the presence of 0.5δ” value in experiment [5] was “significantly enhanced”. Besides, the “neutralizing activity on various HIV-1 strains, overall” value in [7] is “wide range of strong neutralizing activity”.

B2: 5G2: IgG1 κ monoclonal antibody to gp120 V3 loop; VH SEQ ID NO: 3, VL SEQ ID NO: 4; FERM BP-11021 (antibody, listed as Homo sapiens, V domains shown)
VH: EVQLVESGGGVVRPGNSLRLSCAASGIIFSTANLHWLRHVPGKGLEWVAIISYDGHRQYYADLVKGRFTISRDNSKNTLHLQMDGLTSDDTAVYYCAKDGADENNLGPAFDYWGRGTLVTVSS
VL: EIVLTQSPATLSVSPGEGATLSCRASQSISSNLAWYQQKPGQAPRLLIYGASTGATGIPARFSGSGSGTDFTLTISRLEPEDFAIYYCQQYGSLPITFGQGTRLEIKR
notes: IgG1 κ monoclonal antibody to gp120 V3 loop; FERM BP-11021
Turning to B2, the neutralizing activity entry is on record as “strong neutralizing activity” in [1], “exhibited a neutralizing activity” in experiment [6] and “exhibited a neutralizing activity” in experiment [8]. The “reactivity in the absence of sCD4” value in experiment [3] is listed as “strong reactivity”. For the same molecule, in experiment [4], the “combination effect on neutralizing activity” value is “synergistic inhibitory effect”. Also, in experiment [7], the “neutralizing activity on various HIV-1 strains, overall” value was “equivalent to that of a KD-247 antibody”.

B3: 42F9: IgG1 κ monoclonal antibody to gp120 CD4-binding site; VH SEQ ID NO: 7, VL SEQ ID NO: 8; FERM BP-11022 (antibody, listed as Homo sapiens, V domains shown)
VH: EVQLVESGGGVVRPGGSLRLSCAASGFAFGEYGMSWVRQAPGKGLEWVSGINWNGGSTGYADSVQGRFTTSRDNAKNSLYLQMNSLRAEDTALYYCARDENYDILTGNYYYGMDVWGQGTTVTVSS
VL: DIQLTQSPSSLSASVGDRVTITCRASQSISNYLNWYQQKPGKAPKLLIYAASSLQSGVPSRFSGSGSGTDFTLTISSLQPEDFATFYCQQSHSIPYTFGQGTKLEIKR
Consider B3, for which the neutralizing activity result in [9] is given as “clear neutralizing activity”; in experiment [10], “clear neutralizing activity”; in experiment [1] it was “strong neutralizing activity”; in experiment [11], “exhibited a neutralizing activity”; in experiment [14], “exhibited a neutralizing activity”. The “binding activity to the infected cell surface” value in [3] (FIG. 2) is on record as “had a binding activity”. Moreover, the Traget entry in experiment [12] was “CD4bs”. The “influence of sCD4 on reactivity with gp120” value in experiment [13] is reported as “suppressed in the presence of sCD4”.

Values taken from patent publication US8722861B2, “Monoclonal antibodies that bind to the V3 loop of HIV-1 gp120” (priority 2007, dated 2014).
